T1: biotinylated recombinant mouse IL-12Rβ2 (produced in-house) (mouse, UniProt P97378 24-637, random biotinylated)
T1 construct: also called mIL-12RB2; mIL12RB2
T1 sequence: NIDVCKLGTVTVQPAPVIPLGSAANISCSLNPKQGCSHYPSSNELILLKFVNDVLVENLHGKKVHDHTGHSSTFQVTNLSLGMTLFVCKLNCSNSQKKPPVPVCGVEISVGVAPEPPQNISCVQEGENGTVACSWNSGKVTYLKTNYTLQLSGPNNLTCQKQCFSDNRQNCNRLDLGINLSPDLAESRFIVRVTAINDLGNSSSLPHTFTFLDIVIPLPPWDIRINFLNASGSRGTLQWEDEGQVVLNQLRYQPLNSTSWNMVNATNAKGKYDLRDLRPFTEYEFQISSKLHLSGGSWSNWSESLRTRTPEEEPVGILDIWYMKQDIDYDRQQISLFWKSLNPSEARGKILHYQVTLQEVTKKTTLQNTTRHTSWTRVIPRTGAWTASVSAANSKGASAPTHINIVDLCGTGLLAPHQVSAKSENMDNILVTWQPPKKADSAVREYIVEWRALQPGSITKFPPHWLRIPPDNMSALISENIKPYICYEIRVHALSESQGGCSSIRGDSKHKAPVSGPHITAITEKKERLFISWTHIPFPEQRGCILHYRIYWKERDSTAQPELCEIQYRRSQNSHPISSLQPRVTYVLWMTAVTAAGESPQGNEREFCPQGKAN

T2: human IL-12Rβ2 expressed on cells (human, UniProt Q99665 24-862)
T2 construct: HEK293T cells transiently transfected with a human IL-12Rβ2 plasmid (Genscript OHu21785); also called hIL-12RB2
T2 sequence: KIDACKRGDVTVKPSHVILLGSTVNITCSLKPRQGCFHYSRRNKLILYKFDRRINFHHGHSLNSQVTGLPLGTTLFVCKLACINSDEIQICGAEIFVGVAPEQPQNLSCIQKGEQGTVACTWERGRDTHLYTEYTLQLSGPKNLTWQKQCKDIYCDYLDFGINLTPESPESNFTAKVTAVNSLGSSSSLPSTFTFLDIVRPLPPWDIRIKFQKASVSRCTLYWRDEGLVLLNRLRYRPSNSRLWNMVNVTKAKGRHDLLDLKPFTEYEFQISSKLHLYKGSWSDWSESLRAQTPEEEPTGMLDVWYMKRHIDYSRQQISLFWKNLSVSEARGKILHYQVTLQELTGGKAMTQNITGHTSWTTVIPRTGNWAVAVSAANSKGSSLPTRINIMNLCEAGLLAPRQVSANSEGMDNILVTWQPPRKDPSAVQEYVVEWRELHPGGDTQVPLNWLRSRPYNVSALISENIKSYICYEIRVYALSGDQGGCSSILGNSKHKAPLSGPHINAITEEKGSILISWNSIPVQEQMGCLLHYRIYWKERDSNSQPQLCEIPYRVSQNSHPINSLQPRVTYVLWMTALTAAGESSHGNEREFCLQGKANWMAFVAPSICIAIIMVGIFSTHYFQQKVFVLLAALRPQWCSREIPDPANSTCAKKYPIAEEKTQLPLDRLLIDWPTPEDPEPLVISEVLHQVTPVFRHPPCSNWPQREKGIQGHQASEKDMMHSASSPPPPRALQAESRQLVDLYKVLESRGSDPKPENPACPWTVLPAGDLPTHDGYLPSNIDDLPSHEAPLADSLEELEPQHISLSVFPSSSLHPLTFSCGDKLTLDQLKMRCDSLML


Tests used:
[1] = target: T1, biotinylated recombinant mouse IL-12Rβ2 …; assay: ELISA, P.E. VHH on biotinylated mIL-12RB2, signal ratio to control well
[2] = target: T2, human IL-12Rβ2 expressed on cells; assay: flow cytometry, P.E. VHH on HEK293T cells transiently expressing hIL-12RB2

ELISA mIL12RB2/control [1] | dMFI [2] | Binder
26.3 | 297 | anti-IL-12Rβ2 VHH clone 3CRHM73 (VHH, not shown: small tags and cut ends, tested as periplasmic extract; also called 21060) VHH: QVQLQESGGGLVQAGGSLSLSCAASGSAFRLNFMGWYRQAPGKQRELVAAINSGGTEIYHDSVKGRFTISRDNADSTVWLQMNSLKPDDTAVYYCAADRGISWSKLAGGMDYWGKGTQVTVSS
38.8 | 684 | anti-IL-12Rβ2 VHH clone 3CAHM11 (VHH, not shown: small tags and cut ends, tested as periplasmic extract) VHH: QVQLQESGGGLVQAGGSLRLSCAASGRTFNNYAMAWFRQAPGKEREFIAAITRSDTTLYIDSVKGRFTISRDNAKNTVALQMNSLKPEDTAVYYCAAGMPYSYSDYPRDSKYDYWGRGTQVTVSS
25.1 | 589 | anti-IL-12Rβ2 VHH clone 3CRHM14 (VHH, not shown: small tags and cut ends, tested as periplasmic extract) VHH: QVQLQESGGGLVQAGGSLRLSCAASGRTFSNYAMAWFRQAPGTEREFVAGLSGSGGDTEFYDDSVKGRFAISRDSAKNTVWLQMNSLKPEDTAVYYCAAATHVVVHYGLVRRRGTYDYWGQGTQVTVSS
5.24 | 458 | anti-IL-12Rβ2 VHH clone 3CRHM99 (VHH, not shown: small tags and cut ends, tested as periplasmic extract; also called 21062) VHH: QVQLQESGGGLVQPGGSLRLSCAASGISSSRLHVGWFRQSPGKEREFVAAISLSGGTQAYTDSVKGRFTISGDNVKNTAYLQMNSLRPEDTAVYYCAARERFIWTWSDLTYDYWGQGTQVTVSS

— US20260209362A1 (VIB VZW, published 2026)
